In patent publication US20110311535A1:

Biological target: NKG2D ligands expressed on YAC-1 cells
Assay: cell-based or functional assay

B1: murine NKG2D-Fc fusion protein (IgG2a-IEGR-NKG2D construct) (Fc fusion, mouse, not shown: a dimerising Fc or GST)
chain: IEGRETFQPVLCNKEVPVSSREGYCGPCPNNWICHRNNCYQFFNEEKTWNQSQASCLSQNSSLLKIYSKEEQDFLKLVKSYHWMGLVQIPANGSWQWEDGSSLSYNQLTLVEIPKGSCAVYGSSFKAYTEDCANLNTYICMKRAV
ADCC by thioglycollate-elicited macrophages (percent of target cells): 55%
complement-dependent lysis of YAC-1 cells: 80%
